Data reported in the DeepSol protein solubility set.

test: soluble on expression in E. coli; label from the status in PepcDB or PDB records

Sequence	soluble on expression in E. coli
AHHHHHHGSVEQDPYEIVIKQLERAAQYMEISEEALEFLKRPQRIVEVTIPVEMDDGSVKVFTGFRVQHNWARGPTKGGIRWHPEETLSTVKALAAWMTWKTAVMDLPYGGGKGGIIVDPKKLSDREKERLARGYIRAIYDVISPYEDIPAPDVYTNPQIMAWMMDEYETISRRKTPAFGIITGKPLSIGGSLGRIEATARGASYTIREAAKVLGWDTLKGKTIAIQGYGNAGYYLAKIMSEDFGMKVVAVSDSKGGIYNPDGLNADEVLKWKNEHGSVKDFPGATNITNEELLELEVDVLAPAAIEEVITKKNADNIKAKIVAEVANGPVTPEADEILFEKGILQIPDFLCNAGGVTVSYFEWVQNITGYYWTIEEVRERLDKKMTKAFYDVYNIAKEKNIHMRDAAYVVAVQRVYQAMLDRGWVKH	soluble
MGHHHHHHSHMDWNKTYAAIYRARKDYLKPIFEIDPIALKDLVGMESQKKALYENTLNFIQDKGANHALLWGSKGTGKSSLIKAIFNEFKEQGLRLVELNKEDLFALADIIDEIRLENFKFILFCDDFSFEKGDDSYKFLKPLLEGSIEKAPNNVIIYASSNRRHLLSESITDNLDTQITHTELHLSDAAEERLSLSDRFG	soluble
MGSDKIHHHHHHMHHRSSPLSRCLNRPSLSENRLVERACLSVGRRPSSSRSRRQHAGRLALLLGTLAPAVVLAQAAPDTVAMPQGINLGGTSFMDGFGSTTPGWTVLEYLRYYDLDAIKNARGDNSPAFRDPQVGVSALLTQLIYVTPYSLGRGSLSFNTIIPLVNYDTSFAADSPVRLRSNGFGMGDISFGPALQMPPVMRDGRVFFFQRFALDLFAPVGKFDRDIAINQGTGFWSIAPQWAFTVQPTDNWEISARINYLYNFRTDRAGGVPPIPGFRFRNGQAGDAVWVNFASSVKVSEQLRVGVNGYFLQQLKDNRTNGERVADSKRMQLYLGPGLSWRVDAKNLFNLNLYIPLDVENSVAGNSVNLMYVHSL	not soluble
MGSDKIHHHHHHMSLTPVLDKIDSDVSAATDRLLELLRIPSISTDPAYKADCDAAADWLVKDLNSIGIKAEKRETPGHPMVVGHVGEENTKGPHLLFYGHYDVQPVDPLNLWNTPPFEPQLEETPNGTVIRGRGASDDKGQLMTFVEACRAWQAVHGTLPCRITFFFEGEEESGSPSLIPFLEAAKEELSADIALICDTSMVARGVPLVASQLRGMMKDEFTLIGPKIDLHSGHYGGPGLNPLREISHIIASFHDPDTGAVAVEGFYEGVPEVPADILRQWEGCGFDEKDYLSNAGYTEAHGEKKYSTLEQQWARPTLEINGLWGGYQGAGTKTVIPSEAHCKITCRLVGDMDPADLRQKIRKHVEDRLPTDCTVKWDLDLDGAPAYVIDTTRPEFEAARGALTEEWNREAVFSGMGGSIPVAGYFKSILGMDAMLIGFANEDDAIHSPNEKYDLESFHKGIRSWARVLDALSKA	not soluble
GPGSMVKKMGRDEARAGVERRPPPMLKAERQAAFRRKVRNELLLSGRERKDAERQRMEEFRRLCKAEGIQSKRLQEYDAMREEAANKLGEKLNHIEYDQSLTNAEKRKRRYNLKRNYAGQTVMDLVQKQEKHHNALTKVEKIRKKRQEEIEAARVAKRERDEMKVKRIKERMAQNALYAQRTRKGQPVMSGRVEALLNKIQRNQQQ	soluble
MGSDKIHHHHHHMASAPQANLPMFYNDLMPLNSRDHAAWKAKNADAAPWLIGQHAIPLTAEEFPQAARHYPIIFASGDNPVPLALMGLNEGVNVFVDEDGKVTQPVYIPAYVRRYPFLLAKLNPNSEELSLCFDPSSGLIGDSVDGVELFSDGQPSEATKAALGFCEQFEQAGQRTQAFIDELKKHDLLMEGEVAIQQQGNEQPFIYRGFQMVNQDKLRETRGDVLRGWAQSGLLPLLYAHLFSLELISQIFGAQVQMGKGPIPATPVPAE	not soluble
MAEDKTKPSELDQGKYDADDNVKIICLGDSAVGKSKLMERFLMDGFQPQQLSTYALTLYKHTATVDGRTILVDFWDTAGQERFQSMHASYYHKAHACIMVFDVQRKVTYRNLSTWYTELREFRPEIPCIVVANKIDADINVTQKSFNFAKKFSLPLYFVSAADGTNVVKLFNDAIRLAVSYKQNSQDFMDEIFQELENFSLEQEEEDVPDQEQSSSIETPSEEAASPHS	soluble
MKVLITSGGTTEPIDNVRGISNFATGSLGKVTAENFLNAGHEVYLLAGLQAKLPEFTDRLTYIPIEGTHDLYEQMKNLVPDMDVVIHSMAVSDYRPIYMTGLENFTDKFSKEELLNFRPEKVGKISSKSDYQIMLLEKTPKIISYIKEWNPNVLLFGFKLLVGVEKSELLSVAREKLLTNHADFILANDLENIHGNDHQAFLVSKNHEITLKTKAEIADRLLKTSEELKND	soluble
MKVLILRPAELLSETIRRFREEGFDAYGCPFIKLIYTDFDVPEHDFAIVTSQNAARVLRERGVRLKRVIAIGKKTAELIEAEEVLLPSKFDSETLYEEFAEMLRGKRVVAFRSNAGSEAVKRLSEVADFREIQVYRIEKLQGEEQRREVEKVREGFYDAIVFSSSMIARSLLELCDEKCLEALKNIFVVAIGPPTAKVLAEKGIRAEIPEEYTFDGVIELLKSKKMLEHHHHHH	soluble
MNFGESYCSFHCSWCQPLLDSLSKESCWYLNFQSVDESQFYDETYFASPKNKTPRVSGKLKEKLLQFVKTPEDLDRPRKRAIIHICRRIKKITGQDIDPEYISKLLYGLKRARRDKFRKINREIFRGLNWDFTQFEKCTFKCVLN	not soluble
GMTTPPARTAKQRIQDTLNRLELDVDAWVSTAGADGGAPYLVPLSYLWDGETFLVATPAASPTGRNLSETGRVRLGIGPTRDLVLVEGTALPLEPAGLPDGVGDTFAEKTGFDPRRLTTSYLYFRISPRRVQAWREANELSGRELMRDGEWLVTD	soluble
METYLEIETLIKRIFNSFRHEVEAVLDKRLSGSEYRVLSLISSGLTKTSDLAKTLDVSASHITAITDTLVEEKLITRHRSEVDRRIIELKLTSNAEEFVKEIDKKKKEMIVKRFAVFSEYEQAEFRKLLKKLADGSQSNK	not soluble
MVVFVASSRWDPSPDVIGQLCCLVSGGRSVPSTALKLGLSLSAAYRLAREYQLPVRVQTSTSASVTKSIETLWKQDVKPSDISTRLNVGTSVVYRIGIELGLWQRNPHGRRASATSRRCEYVMLRFGAMSRKDTAKVVGINPRETLDIDKGVTKLNGVGRVPCVPDEPDTELYKRLMQVVPYVDGRQAVPVEVIPQHAIDKRMSPR	not soluble
MGSDKIHHHHHHMSNLPLISVVIPTYGREEILRDSIVDVLNQDYPKYEVLVVDQSPKHKPEIETYLEEVAAAGKVKWFRLDWASLPGARNYAIRRASGEIILFIDDDVKLKPGFLAAHAKNYVQNPDVGSVAGRVFDRMKLGDSGGNLEIEYLPPEAMDPGVAWYHIDLVHTIKPQQVLTARGCNMSFRREIFTKHGLRFDERFRGSAVREESDFCLRLRQTGYKIWYDPEADLIHLGEETGGCHDISMRSLKYQFTFYHNHFLLGLKNLNFSQALRLYARLFDCHVLGRPPCHKSGSPIKIITRGIFYILGFFRALGSVIQSNWHDGQIYSRLDQESIIKSQESMVNS	not soluble
AIADEEEEISVVQDMAYDYSGKRLATVSIDREICIWNKKDDWQRTYQWKAHEGPLFGVSWAHPCFGNILATGSYDKRVIIWEEPEASSSYSSSSMDKSTKGWTALAHLVDARDEVRQVQFAPPHLGLLLASGSADGYVRIYTCIDEADLHQWPLLTELDMDSPVVGMSWNPSVDSIPLIVVASHKDCRVWSMDNDTRRWTDWHLFRTSESDTADLSAVAWAPHVGRSFERIALGCEDGSILLFQFPRIQQGNKTNGHEMQPICRLNHGNERIVRLQWNMVGSILASSASDRMVRLWKALPQDGTRWNCFDVVHLNE	soluble
MNKLLPTSTAGSLPKPSWLAQPEKLWSPWKLQDEELTEGKQDALRLSLQEQQHAGIDIVSDGEQTRQHFVTTFIEHLSGVDFEKRETVRIRNRYDASVPTVVGAVSRPKPVFVDDAKFLRQQTRQPIKWALPGPMTMIDTLFDAHYKSREKLAWEFAKILNQEAKELEAAGVDIIQFDEPAFNVFFDEVNDWGVATLERAIEGLNCETAVHICYGYGIKANTDWKQTLGSEWRQYEESFPKLQASTIDIVSLECHNSHVPIDLIELVRGKKVMVGAIDVASNTIETPQEVADTLRKALRFVDADKLYPSTNCGMAPLARHVARGKLSALSAGADIIRAELSAQLEHHHHHH	not soluble
MTIAQEPTALNFECETGNYHTFCPISCVAWLYQKIEDSFFLVIGTKTCGYFLQNAMGVMIFAEPRYAMAELEEGDISAQLNDYAELKRLCEQIKRDRNPSVIVWIGTCTTEIIKMDLEGLAPKLEGEIGIPIVVARANGLDYAFTQGEDTVLAAMAHRCPDKAPVAELEHHHHHH	not soluble
MSLVTIKEIASAVGVSSATVSRVLNYDPTLSISTRKRQAIIETAEALNYATPRNRNRAAAQAVGSGLKIALVHFLDPAQELADPYYVGVRLGIESRCQALNSDVVKVFLTGNTPEATILEGASGVVAVGHYYGDELEWLRRHSRHLVFADYAPAGDMEDTVLSDVSQAMIRLLEAVHAMGYRRIGFIGWIDAFYGPDNIHSERRCHTYIDWMTKTGLFDPELCLVDPMTPDSGYRLAKAMLSKPNPPKILITCNDNMALGAYRAINEMGLRIPDDVAVASFNDIPVAQFLGPPLSTVKIPAELIGETAVDLLVERLSGREVAKKVVFGTEIIWRASTEGHHHHHH	soluble
MVHFIFIALRSMRFMRRLVRNLQYLLLPITSSLLFI	soluble
MHIKSAIIVVSDRISTGTRENKALPLLQRLMSDELQDYSYELISEVVVPEGYDTVVEAIATALKQGARFIITAGGTGIRAKNQTPEATASFIHTRCEGLEQQILIHGSTHTHLAGLSRGIVGVTGRDDHAALIVNAPSSSGGITDTWAVISPVIPNIFEGLDAS	soluble
GMIDEKFLIESNELVESSKIVMVGTNGENGYPNIKAMMRLKHDGLKKFWLSTNTSTRMVERLKKNNKICLYFVDDNKFAGLMLVGTIEILHDRASKEMLWTDGCEIYYPLGIDDPDYTALCFTAEWGNYYRHLKNITFKIDEIYNY	soluble
MTAISCSPRPRYASRMPVLSKTVEVTADAASIMAIVADIERYPEWNEGVKGAWVLARYDDGRPSQVRLDTAVQGIEGTYIHAVYYPGENQIQTVMQQGELFAKQEQLFSVVATGAASLLTVDMDVQVTMPVPEPMVKMLLNNVLEHLAENLKQRAEQLAAS	soluble
LEQVNDKRISPLRPMRLRLIPLKCKTQPKKGKLSLQSVQKIYVNPRSNGTFKRVPLAGDLFKSRMRQPERDMQKNKLHDSDWQSNM	soluble
MAQFTEDEKIMRRLEQRFNKGVVKYRLIEDGDKILIGLSGGKDSLALLELLARRSRILKPKFTVIAVHVGMTNIPYQSDLEYLKGYSEDLGVPFVHYETFFDPSTDTRKSPCFLCSWNRRKALFTVAKEQGCNKIALGHHMDDILETLLMNITFQGAFSTMPPKLVMRKFEMTIIRPMCLVHEADLIEMARIRGFRKQIKDCPYESLSNRSNMKEVLYSLEKMNPEARYSLWKCMTNIQEELLPGMNEHDL	not soluble
MNTQILGLHHVTAMTSSAEKIYHFFTDILGLRLIKKTVNQDDIETYHLFFADDAGSPGTDMTFFDFPGLPKGTKGTNTISRTSFRVKDDATLDYWVSRFNEYAIDHGEIQERFGKKYLEFEDFDNQRYQLISDEKNQCVAAGTPWKKSNVPSEHALIGLGPAFVTVENYEHLQLVLTEVLGFKLIDAEGSFHLFEVGEGGNGASIIVEHREDLPAAQEGYGNVHHLALRVADEEALRFWIEKINRLEFPNSGFVERFYFKSEYFLAATHVLFELATDGPGFLEDETYEHAGEKLSLPPFLEPKRAGIEEFVRPFDTSDANVQRN	not soluble
